Measured values taken from patent US20020068696A1 (published 2002).

What was measured:
HA-TRAF2 = target: T1, HA-TRAF2 (UniProt Q12933 1-501, limits assumed); assay: co-immunoprecipitation from 293T lysates, western blot
T1 construct: not shown: HA tag
T1 sequence (looked up): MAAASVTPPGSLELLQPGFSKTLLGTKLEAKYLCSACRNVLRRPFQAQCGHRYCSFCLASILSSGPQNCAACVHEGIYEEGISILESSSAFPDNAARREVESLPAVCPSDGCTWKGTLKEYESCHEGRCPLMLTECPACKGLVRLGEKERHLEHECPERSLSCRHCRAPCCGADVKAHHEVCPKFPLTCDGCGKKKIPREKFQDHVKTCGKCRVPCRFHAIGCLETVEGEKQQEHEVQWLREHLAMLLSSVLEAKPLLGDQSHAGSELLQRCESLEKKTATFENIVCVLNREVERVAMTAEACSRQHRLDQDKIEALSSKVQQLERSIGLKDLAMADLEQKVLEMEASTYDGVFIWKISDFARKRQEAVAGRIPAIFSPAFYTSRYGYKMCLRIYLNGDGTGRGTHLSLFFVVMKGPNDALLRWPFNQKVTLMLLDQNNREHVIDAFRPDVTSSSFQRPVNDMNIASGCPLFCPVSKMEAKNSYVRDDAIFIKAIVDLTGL

HA-TRAF3 = target: T2, HA-TRAF3 (UniProt Q13114 1-568, limits assumed); assay: as above
T2 construct: not shown: HA tag
T2 sequence (looked up): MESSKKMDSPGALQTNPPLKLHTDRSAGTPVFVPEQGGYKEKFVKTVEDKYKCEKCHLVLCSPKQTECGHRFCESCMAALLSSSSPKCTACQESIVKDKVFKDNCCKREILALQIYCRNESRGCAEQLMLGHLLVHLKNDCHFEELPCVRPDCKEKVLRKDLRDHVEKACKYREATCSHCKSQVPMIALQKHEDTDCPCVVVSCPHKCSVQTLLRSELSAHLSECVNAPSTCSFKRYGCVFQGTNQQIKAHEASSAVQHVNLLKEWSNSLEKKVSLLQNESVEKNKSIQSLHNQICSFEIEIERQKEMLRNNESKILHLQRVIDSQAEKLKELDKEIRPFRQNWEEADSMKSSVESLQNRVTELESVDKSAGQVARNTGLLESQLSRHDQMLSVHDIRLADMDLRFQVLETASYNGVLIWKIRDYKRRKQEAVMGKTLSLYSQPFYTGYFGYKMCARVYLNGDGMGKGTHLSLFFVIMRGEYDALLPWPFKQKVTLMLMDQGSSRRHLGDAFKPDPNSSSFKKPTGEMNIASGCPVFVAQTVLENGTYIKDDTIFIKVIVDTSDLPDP

| Binder | binding result (HA-TRAF2) | binding result (HA-TRAF3) |
| --- | --- | --- |
| Flag-tagged TRADEα (receptor, Full-length isoform expressed in 293T cells and tested in cell lysates by co-immunoprecipitation; Position of the Flag tag unknown (written last here only for want of information); Putative 25-residue signal left out; also called Flag tagged TRADE construct; not shown: Flag tag) KVTCESGDCRQQEFRDRSGNCVPCNQCGPGMELSKECGFGYGEDAQCVTCRLHRFKEDWGFQKCKPCLDCAVVNRFQKANCSATSDAICGDCLPGFYRKTKLVGFQDMECVPCGDPPPPYEPHCASKVNLVKIASTASSPRDTALAAVICSALATVLLALLILCVIYCKRQFMEKKPSWSLRSQDIQYNGSELSCFDRPQLHEYAHRACCQCRRDSVQTCGPVRLLPSMCCEEACSPNPATLGCGVHSAASLQARNAGPAGEMVPTFFGSLTQSICGEFSDAWPLMQNPMGGDNISFCDSYPELTGEDIHSLNPELESSTSLDSNSSQDLVGGAVPVQSHSENFTAATDLSRYNNTLVESASTQDALTMRSQLDQESGAIIHPATQTSLQEA | no binding |  |
| Flag-tagged TRADEβ (receptor, Full-length isoform expressed in 293T cells and tested in cell lysates by co-immunoprecipitation; Position of the Flag tag unknown; Putative 25-residue signal left out; also called Flag tagged TRADE construct; not shown: Flag tag) KVTCETGDCRQQEFRDRSGNCVPCNQCGPGMELSKECGFGYGEDAQCVTCRLHRFKEDWGFQKCKPCLDCAVVNRFQKANCSATSDAICGDCLPGFYRKTKLVGFQDMECVPCGDPPPPYEPHCASKVNLVKIASTASSPRDTALAAVICSALATVLLALLILCVIYCKRQFMEKKPSWSLRSQDIQYNGSELSCLDRPQLHEYAHRACCQCRRDSVQTCGPVRLLPSMCCEEACSPNPATLGCGVHSAASLQARNAGPAGEMVPTFFGSLTQSICGEFSDAWPLMQNPMGGDNISFCDSYPELAGEDIHSLNPELESSTSLDSNSSQDLVGGAVPVQSHSENFTAATDLSRYNNTLVESASTQDALTMRSQLDQESGAIIHPATQTSLQVRQRLGSL | no binding |  |
| deletion construct TRADE 1-218 (Flag-tagged) (receptor, Putative 25-residue signal left out; not shown: Flag tag) KVTCESGDCRQQEFRDRSGNCVPCNQCGPGMELSKECGFGYGEDAQCVTCRLHRFKEDWGFQKCKPCLDCAVVNRFQKANCSATSDAICGDCLPGFYRKTKLVGFQDMECVPCGDPPPPYEPHCASKVNLVKIASTASSPRDTALAAVICSALATVLLALLILCVIYCKRQFMEKKPSWSLRSQDIQYNGSEL |  | no binding |
